3 substances from patent WO2013005649A1 can be followed below.

In the assay the target is human CCR6 N-terminal extracellular domain Fc fusion protein NthCCR6-IgG4Fc (human). Nature of the assay: SPR, Biacore T100; NthCCR6-IgG4Fc captured on anti-human IgG CM5 chip, antibody injected. On the technique in general: SPR reads the build-up and loss of mass on a sensor chip optically.
human CCR6 N-terminal extracellular domain Fc fusion protein NthCCR6-IgG4Fc (human), sequence (chain, as listed by the source limits assumed): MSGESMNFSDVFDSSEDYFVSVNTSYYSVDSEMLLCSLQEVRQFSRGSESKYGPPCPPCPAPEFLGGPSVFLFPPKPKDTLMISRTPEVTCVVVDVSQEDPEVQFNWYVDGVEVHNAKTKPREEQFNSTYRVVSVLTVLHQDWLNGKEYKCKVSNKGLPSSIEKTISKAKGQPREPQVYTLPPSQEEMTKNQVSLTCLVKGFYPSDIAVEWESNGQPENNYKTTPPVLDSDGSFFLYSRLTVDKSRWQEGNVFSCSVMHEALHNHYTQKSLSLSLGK

What is called Kd is the free concentration of one partner at which half of the binding sites on the other are occupied at equilibrium, for simple one-to-one binding. Higher therefore signals weaker binding. On to “commercially available anti-human CCR6 monoclonal antibody R6H1 (eBioscience)”, for which the Kd turned out to be 4.97 nM.

Substance “human CCR6 monoclonal antibody (clone 53103) (R&D Systems)” registered a Kd of 70.9 nM.

As for “commercially available anti-human CCR6 monoclonal antibody 11A9 (BD Pharmingen)”, the Kd came out at 20 nM.
